Experimental data taken from US20190106487A1 (Sanofi, published 2019).

Key:
rhIL-1RAcP/Fc Chimera [1] = biological target: T1, rhIL-1RAcP/Fc Chimera (human, UniProt Q9NPH3 21-359); test: ELISA, primary supernatant, coated hu-IL-1RAcP-Fc
T1 construct: also called P013_03; P013-03
T1 sequence (looked up): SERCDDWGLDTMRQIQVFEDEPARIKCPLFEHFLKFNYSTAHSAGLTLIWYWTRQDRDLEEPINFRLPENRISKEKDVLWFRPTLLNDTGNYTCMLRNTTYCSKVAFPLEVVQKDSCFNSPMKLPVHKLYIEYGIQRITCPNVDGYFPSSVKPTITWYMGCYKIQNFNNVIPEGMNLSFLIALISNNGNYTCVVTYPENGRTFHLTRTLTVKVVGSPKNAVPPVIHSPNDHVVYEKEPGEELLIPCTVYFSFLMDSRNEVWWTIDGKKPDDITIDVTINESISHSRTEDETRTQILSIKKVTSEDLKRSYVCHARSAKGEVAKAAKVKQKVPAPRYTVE
Method in brief: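 Plates coated with 0.5 μg/mL Fc-tagged human IL-1RAcP; rabbit B-cell supernatant antibodies detected by peroxidase anti-rabbit IgG Fab2 and TMB, absorbance 450/620 nm. Parallel IL12Rβ1-Fc coating served as counterscreen to exclude tag binders.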

[2] = biological target: T2, human IL-1RAcP on 293T/17-FR cells (human, UniProt Q9NPH3 21-570); test: cell-based or functional assay
T2 sequence (looked up): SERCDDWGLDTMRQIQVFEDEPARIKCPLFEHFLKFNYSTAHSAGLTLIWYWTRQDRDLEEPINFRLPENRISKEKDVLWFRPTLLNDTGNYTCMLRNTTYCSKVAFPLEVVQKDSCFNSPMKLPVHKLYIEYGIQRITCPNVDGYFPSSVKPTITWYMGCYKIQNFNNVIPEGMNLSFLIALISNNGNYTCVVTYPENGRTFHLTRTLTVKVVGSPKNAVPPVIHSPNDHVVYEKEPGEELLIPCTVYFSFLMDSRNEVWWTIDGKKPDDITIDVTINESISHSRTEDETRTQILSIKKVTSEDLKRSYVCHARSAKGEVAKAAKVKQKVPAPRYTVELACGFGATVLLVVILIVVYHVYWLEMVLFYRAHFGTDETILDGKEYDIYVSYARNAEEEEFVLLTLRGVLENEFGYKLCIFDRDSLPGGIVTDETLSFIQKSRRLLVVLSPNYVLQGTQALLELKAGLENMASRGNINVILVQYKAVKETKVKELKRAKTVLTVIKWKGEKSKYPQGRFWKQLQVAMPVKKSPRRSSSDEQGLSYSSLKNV

rhIL-1RAcP/Fc Chimera [3] = biological target: T1, rhIL-1RAcP/Fc Chimera; test: ELISA, recombinant purified mAb
mIL1RAcP-Fc = biological target: T3, mIL1RAcP-Fc (murine, UniProt Q61730 21-359); test: ELISA, primary supernatant, coated mu-IL-1RAcP-Fc
T3 construct: also called P013_04; P013-04
T3 sequence (looked up): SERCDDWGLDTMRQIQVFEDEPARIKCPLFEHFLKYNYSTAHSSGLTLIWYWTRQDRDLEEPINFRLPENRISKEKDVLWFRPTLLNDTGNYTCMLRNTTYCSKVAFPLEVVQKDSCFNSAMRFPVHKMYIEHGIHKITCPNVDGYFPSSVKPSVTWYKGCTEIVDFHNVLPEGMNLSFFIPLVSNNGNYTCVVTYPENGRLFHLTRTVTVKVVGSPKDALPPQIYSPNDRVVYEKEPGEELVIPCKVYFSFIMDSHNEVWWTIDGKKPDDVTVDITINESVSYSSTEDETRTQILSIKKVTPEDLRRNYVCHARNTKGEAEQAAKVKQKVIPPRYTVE

B1: P013.S.01.B.A03 (antibody, V domains shown)
VH: QEQLEESGGDLVQPEGSLTVTCTASGFSFSFGYYMCWVRQAPGKGLEWIACIYGDSSDTLYANWAKGRFTVSKTSSTTVTLQMTSLTAADTATYFCARYPGGSYYNLWGPGTRVTVSS
VL: ALVMTQTPASVEAAVGGTVTIKCQASQTISINLAWYQQKPGQRPKLLIYYASTLASGVPSRFSGSGSGTEFTLTISGVQSDDAATYYCQQGYTEDNIDNTFGGGTEVVVK
notes: rabbit monoclonal antibody; also called P013.A.00088.A07
- hu-IL1RaP ELISA (OD) (rhIL-1RAcP/Fc Chimera [1]): 3.3 OD
- functional reporter gene assay (% inhibition), 0.04 µg/mL mAb [2]: 77%
- functional reporter gene assay (% inhibition), 0.2 µg/mL mAb [2]: 94%
- functional reporter gene assay (% inhibition), 1 µg/mL mAb [2]: 98%
- functional reporter gene assay (% inhibition), 5 µg/mL mAb [2]: 99%
- primary supernatant functional assay (% inh.), NF-kB luciferase reporter [2]: 95%
- EC50 (rhIL-1RAcP/Fc Chimera [3]): 0.225 µg/mL
- mu-IL1RaP ELISA (OD) (mIL1RAcP-Fc): 0 OD

B2: P013.S.01.B.G03 (antibody, V domains shown)
VH: QEQLVESGGGLVQPEGSLTLTCKASGFDFSSNYYMCWVRQAPGKGLELIACIYTNSGNTWSASWAKGRFTISKTSSTTVTLQMTSLTAADTATYFCARDLNYPDTSNLWGQGTLVTVSS
VL: DIVMTQTPASVEAAVGGTVTIKCQASQSIGYYLAWYQQKPGQPPKLLISRASTLASGVPSRFKGSGSGTQFTLTISDLESADVATYYCQSYYNSDSDAFGGGTEVVVK
notes: rabbit monoclonal antibody; also called P013.A.00030.C03
- hu-IL1RaP ELISA (OD) (rhIL-1RAcP/Fc Chimera [1]): 3.2 OD
- functional reporter gene assay (% inhibition), 0.04 µg/mL mAb [2]: 38%
- functional reporter gene assay (% inhibition), 0.2 µg/mL mAb [2]: 51%
- functional reporter gene assay (% inhibition), 1 µg/mL mAb [2]: 82%
- functional reporter gene assay (% inhibition), 5 µg/mL mAb [2]: 92%
- primary supernatant functional assay (% inh.), NF-kB luciferase reporter [2]: 89%
- EC50 (rhIL-1RAcP/Fc Chimera [3]): 0.144 µg/mL
- mu-IL1RaP ELISA (OD) (mIL1RAcP-Fc): 0 OD

B3: P013.S.01.B.H05 (antibody, V domains shown)
VH: LEQSGGGAEGGLVKPGGSLELCCKASGFSLSNSYWICWVRQAPGKGLEWIGCIYVGSSGSTYYASWVNGRFTLSRDIDQSTGCLQLNSLTAADTAIYYCARDGATSTSGHLFELWGQGTLVTVSS
VL: ALVMTQTPSPVSAAVGGTVTINCQASEDIYSNLAWFQQKPGQPPKLLIYRASTLASGVPSRFSGSGSGTEFTLTISGVQSDDAATYYCLGIYTYISADGSLYNAFGGGTEVVVK
notes: rabbit monoclonal antibody; also called P013.A.00109.F08
- hu-IL1RaP ELISA (OD) (rhIL-1RAcP/Fc Chimera [1]): 3.3 OD
- functional reporter gene assay (% inhibition), 0.04 µg/mL mAb [2]: 20%
- functional reporter gene assay (% inhibition), 0.2 µg/mL mAb [2]: 47%
- functional reporter gene assay (% inhibition), 1 µg/mL mAb [2]: 88%
- functional reporter gene assay (% inhibition), 5 µg/mL mAb [2]: 90%
- primary supernatant functional assay (% inh.), NF-kB luciferase reporter [2]: 95%
- EC50 (rhIL-1RAcP/Fc Chimera [3]): 0.485 µg/mL
- mu-IL1RaP ELISA (OD) (mIL1RAcP-Fc): 0.4 OD

B4: P013.S.01.B.F05 (antibody, V domains shown)
VH: QSLEESGGRLVTPGGSLTLTCTVSGIDLSNYAMSWVRQAPGKGLEWIGSVISGGSTYYATWAKGRFTISKTSTTVDLKMTSLTTEDTATYFCARGCPGYNGDKYALDLWGPGTVVTVSS
VL: AFEMTQTPSSVSEPVGGTVTIKCQASQSIHNYLSWYQQKPGQRPKLLIYRASTLASGVPSRFKGSGSGTEFTLTISGVESADAATYYCQQGATSYDIDNAFGGGTEVVVK
notes: rabbit monoclonal antibody; also called P013.A.00087.C06
- hu-IL1RaP ELISA (OD) (rhIL-1RAcP/Fc Chimera [1]): 3.6 OD
- functional reporter gene assay (% inhibition), 0.04 µg/mL mAb [2]: 44%
- functional reporter gene assay (% inhibition), 0.2 µg/mL mAb [2]: 54%
- functional reporter gene assay (% inhibition), 1 µg/mL mAb [2]: 70%
- functional reporter gene assay (% inhibition), 5 µg/mL mAb [2]: 80%
- primary supernatant functional assay (% inh.), NF-kB luciferase reporter [2]: 89%
- EC50 (rhIL-1RAcP/Fc Chimera [3]): 0.052 µg/mL
- mu-IL1RaP ELISA (OD) (mIL1RAcP-Fc): 1.2 OD

B5: P013.S.01.B.F04 (antibody, V domains shown)
VH: LEQSGGGAEGGLVKPGGSLELCCKASGFSLSTSYWRCWVRQAPGKGLEWIGCIYAGSSDATYYANWVNGRFTLSRDIDQSTGCLQLNSLTAADTAMYYCASGVGFGYFNLWGQGTLVTVSS
VL: ALVMTQTPSPVSAAVGGTVTINCQASEDIYSNLAWFQQKPGQPPKLLIYDASTLASGVPSRFSGSGSGTEFTLTISGLQSDDAATYYCLGVYTHISADNAFGGGTEVVVK
notes: rabbit monoclonal antibody; also called P013.A.00133.A12
- hu-IL1RaP ELISA (OD) (rhIL-1RAcP/Fc Chimera [1]): 3.6 OD
- functional reporter gene assay (% inhibition), 0.04 µg/mL mAb [2]: 38%
- functional reporter gene assay (% inhibition), 0.2 µg/mL mAb [2]: 58%
- functional reporter gene assay (% inhibition), 1 µg/mL mAb [2]: 95%
- functional reporter gene assay (% inhibition), 5 µg/mL mAb [2]: 96%
- primary supernatant functional assay (% inh.), NF-kB luciferase reporter [2]: 97%
- EC50 (rhIL-1RAcP/Fc Chimera [3]): 0.046 µg/mL
- mu-IL1RaP ELISA (OD) (mIL1RAcP-Fc): 0.3 OD

B6: P013.S.01.B.A04 (antibody, V domains shown)
VH: QEQLEESGGGLVKPGGTLTLTCKASGIDFSSYYYMCWVRQAPGKGLEWIACIFIGYGDVTWYASWAKGRFTISKASSTTVTLQMTSLTAADTATYFCARALGSSGYRVNLWGPGTLVTVSS
VL: ALVMTQTPSSVSAAVGGTVTINCQASENIYSSLAWYQQKPGQPPKLLIYDASDLASGVPSRFKGSGSGKEFTLTISDLESDDAATYYCQQGYYSGGTDNDVFGGGTEVVVK
notes: rabbit monoclonal antibody; also called P013.A.00085.C03
- hu-IL1RaP ELISA (OD) (rhIL-1RAcP/Fc Chimera [1]): 3.4 OD
- functional reporter gene assay (% inhibition), 0.04 µg/mL mAb [2]: 47%
- functional reporter gene assay (% inhibition), 0.2 µg/mL mAb [2]: 89%
- functional reporter gene assay (% inhibition), 1 µg/mL mAb [2]: 97%
- functional reporter gene assay (% inhibition), 5 µg/mL mAb [2]: 98%
- primary supernatant functional assay (% inh.), NF-kB luciferase reporter [2]: 74%
- EC50 (rhIL-1RAcP/Fc Chimera [3]): 0.027 µg/mL
- mu-IL1RaP ELISA (OD) (mIL1RAcP-Fc): 0 OD

B7: P013.S.01.B.G04 (antibody, V domains shown)
VH: QSVEESGGRLVTPGTPLTLTCTVSGFSLSVYAMGWFRQAPGKGLEWIGDIYIASDGTWYANWAKGRFTISKTSTTVDLKITSPTTEDTATYFCAREIDAGYVGYGFNLWGQGTLVTVSS
VL: AQALTQTPSPVSAAVGGTVTINCQSSQSVYSDYLGWYQQKPGQPPKLLIYWASKLETGVPSRFKGSGSGTQFTLTISGVQSDDAATYYCQATYYGSGWYRAFGGGTEVVVK
notes: rabbit monoclonal antibody; also called P013.A.00013.G06
- hu-IL1RaP ELISA (OD) (rhIL-1RAcP/Fc Chimera [1]): 3.4 OD
- functional reporter gene assay (% inhibition), 0.04 µg/mL mAb [2]: 15%
- functional reporter gene assay (% inhibition), 0.2 µg/mL mAb [2]: 51%
- functional reporter gene assay (% inhibition), 1 µg/mL mAb [2]: 84%
- functional reporter gene assay (% inhibition), 5 µg/mL mAb [2]: 95%
- primary supernatant functional assay (% inh.), NF-kB luciferase reporter [2]: 99%
- EC50 (rhIL-1RAcP/Fc Chimera [3]): 0.255 µg/mL
- mu-IL1RaP ELISA (OD) (mIL1RAcP-Fc): 0 OD

B8: P013.S.01.B.A06 (antibody, V domains shown)
VH: QSLEESGGRLVTPGTPLTLSCKVSGFSLSSYDMSWVRQTPGKGLEWIGTIYIGGTTAYASWPKGRFTISKTSTTVDLKITSPTKEDTATYFCARLQGANYYNSLALWGQGTLVTVSS
VL: DVVMTQTPASVSEPVGGTVTIKCQASQSIYSFLSWYQQKPGQPPKLLIYAASDLESGVPSRFSGSGYGTEFTLTISDLESADAATYYCQCNYIIDYGAFGGGTEVVVK
notes: rabbit monoclonal antibody; also called P013.A.00133.B12
- hu-IL1RaP ELISA (OD) (rhIL-1RAcP/Fc Chimera [1]): 3.5 OD
- functional reporter gene assay (% inhibition), 0.04 µg/mL mAb [2]: 14%
- functional reporter gene assay (% inhibition), 0.2 µg/mL mAb [2]: 85%
- functional reporter gene assay (% inhibition), 1 µg/mL mAb [2]: 99%
- functional reporter gene assay (% inhibition), 5 µg/mL mAb [2]: 100%
- primary supernatant functional assay (% inh.), NF-kB luciferase reporter [2]: 96%
- EC50 (rhIL-1RAcP/Fc Chimera [3]): 0.027 µg/mL
- mu-IL1RaP ELISA (OD) (mIL1RAcP-Fc): 0 OD
